Source: patent US20100130424A1 (Janssen / Centocor, published 2010)
Changes are numbered by the printed parent chain. No end group written: not given here.

T1: human CRH receptor type 2 (human, UniProt Q13324 1-411)
T1 sequence (looked up): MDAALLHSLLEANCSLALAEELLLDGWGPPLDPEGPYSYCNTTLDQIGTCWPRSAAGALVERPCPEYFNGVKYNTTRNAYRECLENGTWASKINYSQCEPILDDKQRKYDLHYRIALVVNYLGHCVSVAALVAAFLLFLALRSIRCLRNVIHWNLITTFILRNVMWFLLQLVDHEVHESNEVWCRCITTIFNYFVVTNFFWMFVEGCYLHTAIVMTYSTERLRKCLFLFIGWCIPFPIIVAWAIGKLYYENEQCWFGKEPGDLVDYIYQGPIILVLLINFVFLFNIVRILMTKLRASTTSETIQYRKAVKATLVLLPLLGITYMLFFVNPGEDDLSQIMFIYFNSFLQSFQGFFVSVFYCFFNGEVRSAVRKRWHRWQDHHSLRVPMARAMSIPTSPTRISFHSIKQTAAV

B1: Cys-variant CRHR2 peptide agonist, SEQ ID NO: 20 (peptide)
peptide: TKFTLSLDVPTNIMNLLFCIAKAKNLRAQAAANAHLMAQI-NH2
B2: Cys-variant CRHR2 peptide agonist, SEQ ID NO: 22 (peptide)
peptide: TKFTLSLDVPTNIMNLLFNICKAKNLRAQAAANAHLMAQI-NH2
B3: Cys-variant CRHR2 peptide agonist, SEQ ID NO: 15 (peptide)
peptide: TKFTLSLDVPTNICNLLFNIAKAKNLRAQAAANAHLMAQI-NH2
B4: Cys-variant CRHR2 peptide agonist, SEQ ID NO: 16 (peptide)
peptide: TKFTLSLDVPTNIMCLLFNIAKAKNLRAQAAANAHLMAQI-NH2
B5: Cys-variant CRHR2 peptide agonist, SEQ ID NO: 19 (peptide)
peptide: TKFTLSLDVPTNIMNLLCNIAKAKNLRAQAAANAHLMAQI-NH2
B6: Cys-variant CRHR2 peptide agonist, SEQ ID NO: 21 (peptide)
peptide: TKFTLSLDVPTNIMNLLFNCAKAKNLRAQAAANAHLMAQI-NH2
B7: Cys-variant CRHR2 peptide agonist, SEQ ID NO: 18 (peptide)
peptide: TKFTLSLDVPTNIMNLCFNIAKAKNLRAQAAANAHLMAQI-NH2
B8: Cys-variant CRHR2 peptide agonist, SEQ ID NO: 14 (peptide)
peptide: TKFTLSLDVPTNCMNLLFNIAKAKNLRAQAAANAHLMAQI-NH2
B9: Cys-variant CRHR2 peptide agonist, SEQ ID NO: 17 (peptide)
peptide: TKFTLSLDVPTNIMNCLFNIAKAKNLRAQAAANAHLMAQI-NH2
B10: Cys-variant CRHR2 peptide agonist, SEQ ID NO: 13 (peptide)
peptide: TKFTLSLDVPTCIMNLLFNIAKAKNLRAQAAANAHLMAQI-NH2
B11: Pegylated Cys-variant CRHR2 peptide agonist (NES linker, PEG about 20 kDa), SEQ ID NO: 66 (peptide)
peptide: TKFTLSLDVPTCIMNLLFNIAKAKNLRAQAAANAHLMAQI
modifications: NES-PEG (about 20 kDa) on Cys 12; C-terminal amide
B12: Pegylated Cys-variant CRHR2 peptide agonist (NES linker, PEG about 20 kDa), SEQ ID NO: 67 (peptide)
peptide: B11 peptide with C12N, I13C
modifications: NES-PEG (about 20 kDa) on Cys 13; C-terminal amide
B13: Pegylated Cys-variant CRHR2 peptide agonist (NES linker, PEG about 20 kDa), SEQ ID NO: 74 (peptide)
peptide: B11 peptide with C12N, I20C
modifications: NES-PEG (about 20 kDa) on Cys 20; C-terminal amide
B14: Pegylated Cys-variant CRHR2 peptide agonist (NES linker, PEG about 20 kDa), SEQ ID NO: 69 (peptide)
peptide: B11 peptide with C12N, N15C
modifications: NES-PEG (about 20 kDa) on Cys 15; C-terminal amide
B15: Pegylated Cys-variant CRHR2 peptide agonist (NES linker, PEG about 20 kDa), SEQ ID NO: 70 (peptide)
peptide: B11 peptide with C12N, L16C
modifications: NES-PEG (about 20 kDa) on Cys 16; C-terminal amide
B16: Pegylated Cys-variant CRHR2 peptide agonist (NES linker, PEG about 20 kDa), SEQ ID NO: 68 (peptide)
peptide: B11 peptide with C12N, M14C
modifications: NES-PEG (about 20 kDa) on Cys 14; C-terminal amide
B17: Pegylated Cys-variant CRHR2 peptide agonist (NES linker, PEG about 20 kDa), SEQ ID NO: 71 (peptide)
peptide: B11 peptide with C12N, L17C
modifications: NES-PEG (about 20 kDa) on Cys 17; C-terminal amide
B18: Pegylated Cys-variant CRHR2 peptide agonist (NES linker, PEG about 20 kDa), SEQ ID NO: 72 (peptide)
peptide: B11 peptide with C12N, F18C
modifications: NES-PEG (about 20 kDa) on Cys 18; C-terminal amide
B19: Pegylated Cys-variant CRHR2 peptide agonist (NES linker, PEG about 20 kDa), SEQ ID NO: 73 (peptide)
peptide: B11 peptide with C12N, N19C
modifications: NES-PEG (about 20 kDa) on Cys 19; C-terminal amide

target: T1, human CRH receptor type 2; assay: cell-based or functional assay

| Log DR against h-SCP, cAMP [log10 ratio] | pA50, cAMP | Binder |
| --- | --- | --- |
| 0.52 | 9 -log M | B1 |
| 0.52 | 9.17 -log M | B2 |
| 0.9 | 8.68 -log M | B3 |
| 0.76 | 8.93 -log M | B4 |
| 1.67 | 8.01 -log M | B5 |
| 0.77 | 8.75 -log M | B6 |
| 1.11 | 8.41 -log M | B7 |
| > 2 | ~7.34 -log M | B8 |
| 0.02 | 9.5 -log M | B9 |
| -0.01 | 9.59 -log M | B10 |
| 1.26 | 8.31 -log M | B11 |
| > 3 | ~6.35 -log M | B12 |
| ~2.28 | ~7.33 -log M | B13 |
| 2.09 | 7.45 -log M | B14 |
| ~2.07 | ~7.34 -log M | B15 |
| ~2.61 | ~6.96 -log M | B16 |
| ~2.26 | ~7.35 -log M | B17 |
| 1.5 | 8.04 -log M | B18 |
| 1.11 | 8.29 -log M | B19 |
